Results: publication PMC10318897, “The structure of Leptospira interrogans GAPDH sheds light into an immunoevasion factor that can target the anaphylatoxin C5a of innate immunity” (Frontiers in Immunology, 2023)

What was measured:
[1] = test system: NC(=O)c1ccc[n+]([C@@H]2O[C@H](COP(=O)(O)OP(=O)(O)OC[C@H]3O[C@@H](n4cnc5c(N)ncnc54)[C@H](O)[C@@H]3O)[C@@H](O)[C@H]2O)c1; assay: purified protein; settings: 2 mM G3P, 5 mM phosphate, 40 mM Tris-HCl pH 8.5, 2 mM EDTA, 25 °C
[2] = test system: O=C[C@H](O)COP(=O)(O)O; assay: purified protein; settings: 2 mM NAD+, 5 mM phosphate, 40 mM Tris-HCl pH 8.5, 2 mM EDTA, 25 °C, fit with substrate inhibition

**Q.** What does the source list for “LiGAPDH (Leptospira interrogans serovar Copenhageni str. Fiocruz L1-130)”?
**A.** Km [1]: 0.081 ± 0.006 mM; kcat [1]: 44.2 ± 0.9 s⁻¹; kcat/Km [1]: 543000 ± 44000 M⁻¹ s⁻¹; Km [2]: 0.6 ± 0.1 mM; kcat [2]: 70 ± 7 s⁻¹; kcat/Km [2]: 121000 ± 24000 M⁻¹ s⁻¹
